Target: Polθ-HLD (DNA polymerase theta helicase domain) (Homo sapiens, UniProt O75417 67-894)
Experiment: fluorescence polarization; low salt, 50 mM NaCl; stated as single digit nM; 10 mM HEPES pH 7.5, 150 mM NaCl (low salt: 50 mM NaCl), 10 nM probe; temperature not stated in material
Details: protein: recombinant; tags: His6 tag cleaved with TEV; chain copies: 4; label: 5' fluorescein (FITC); single strand

Sequence of Polθ-HLD (DNA polymerase theta helicase domain) (O75417 67-894): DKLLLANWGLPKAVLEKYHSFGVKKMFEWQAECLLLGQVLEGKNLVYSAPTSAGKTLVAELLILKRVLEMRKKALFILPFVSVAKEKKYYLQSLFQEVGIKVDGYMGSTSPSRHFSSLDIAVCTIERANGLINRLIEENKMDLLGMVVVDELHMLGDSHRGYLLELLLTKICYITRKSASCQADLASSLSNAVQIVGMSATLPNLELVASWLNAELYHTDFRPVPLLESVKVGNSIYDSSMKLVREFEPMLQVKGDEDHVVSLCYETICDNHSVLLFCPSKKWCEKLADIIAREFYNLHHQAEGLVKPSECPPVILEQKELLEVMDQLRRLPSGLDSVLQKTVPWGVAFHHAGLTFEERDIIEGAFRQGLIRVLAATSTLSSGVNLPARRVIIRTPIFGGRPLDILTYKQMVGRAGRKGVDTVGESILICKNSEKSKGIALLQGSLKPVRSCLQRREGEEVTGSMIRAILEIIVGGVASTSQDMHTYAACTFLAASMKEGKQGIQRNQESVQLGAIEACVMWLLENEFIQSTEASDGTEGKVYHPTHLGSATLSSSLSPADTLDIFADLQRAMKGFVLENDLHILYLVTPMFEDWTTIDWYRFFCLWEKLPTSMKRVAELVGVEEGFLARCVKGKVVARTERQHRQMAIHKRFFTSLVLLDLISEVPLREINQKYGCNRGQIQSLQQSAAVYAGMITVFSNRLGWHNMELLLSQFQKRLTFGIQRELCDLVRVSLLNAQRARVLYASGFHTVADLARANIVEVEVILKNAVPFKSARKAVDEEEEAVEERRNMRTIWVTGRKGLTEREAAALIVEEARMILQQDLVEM

B1: Single stranded (POLQ-1) (ssDNA)
DNA: ATCGATAGTCGGATCCTCTAGACAGCTCCATGTAGCAAGGCACTGGTAGAATTCGGCAGCGTC
B1 was tested, and the Kd was < 10 nM.
